# From PMC11188183
# Assays:
# [1] = biological target: kinesin family member C1 (KIFC1) (human) (UniProt Q9BW19)
# [2] = biological target: kinesin family member C1 (KIFC1) (human) (UniProt Q9BW19); experiment: affinity purification with mass spectrometry; anti-KIFC1 antibody (Abcam ab172620) crosslinked to magnetic beads; nuclear lysate of HCC1806 (AA) cells; LC-MS/MS of the eluate
# [3] = biological target: kinesin family member C1 (KIFC1) (human) (UniProt Q9BW19); experiment: affinity purification with mass spectrometry; anti-KIFC1 antibody (Abcam ab172620) crosslinked to magnetic beads; nuclear lysate of MDA-MB-468 (AA) cells; LC-MS/MS of the eluate
# Chain of UniProt Q9BW19 (Q9BW19 whole entry): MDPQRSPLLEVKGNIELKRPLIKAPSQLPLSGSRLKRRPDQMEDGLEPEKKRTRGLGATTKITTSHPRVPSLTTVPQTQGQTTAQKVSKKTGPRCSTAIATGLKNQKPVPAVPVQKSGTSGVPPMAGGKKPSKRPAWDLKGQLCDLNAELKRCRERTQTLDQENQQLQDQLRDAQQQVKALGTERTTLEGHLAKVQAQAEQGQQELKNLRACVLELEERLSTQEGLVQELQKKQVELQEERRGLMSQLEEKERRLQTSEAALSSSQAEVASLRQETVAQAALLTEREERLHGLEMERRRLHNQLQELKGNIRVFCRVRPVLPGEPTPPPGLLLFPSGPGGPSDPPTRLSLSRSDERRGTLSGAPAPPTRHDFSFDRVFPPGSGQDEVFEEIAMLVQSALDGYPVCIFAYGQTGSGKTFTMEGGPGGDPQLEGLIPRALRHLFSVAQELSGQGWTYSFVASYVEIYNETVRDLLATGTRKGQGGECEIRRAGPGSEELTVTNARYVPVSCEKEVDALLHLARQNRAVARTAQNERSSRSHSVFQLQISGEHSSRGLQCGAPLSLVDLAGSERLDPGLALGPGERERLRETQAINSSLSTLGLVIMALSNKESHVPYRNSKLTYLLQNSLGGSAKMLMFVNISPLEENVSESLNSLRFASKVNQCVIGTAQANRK
substance,measurement,setting,value
myosin heavy chain 9 (MYH9) (from UniProt P35579 1-1960) (natural protein),BrdU cell proliferation of AA TNBC cells treated with CW069 + blebbistatin,[1],1.5 fold
same,"relative abundance of MYH9 in the nKIFC1 immunoprecipitate, fold over MDA-MB-231",[2],1.6 fold
same,"relative abundance of MYH9 in the nKIFC1 immunoprecipitate, fold over MDA-MB-231",[3],1.8 fold
